Experimental data reported in paper PMC8298264, “Function of cofactor Akirin2 in the regulation of gene expression in model human neutrophil-like HL60 cells” (Bioscience Reports, 2021).

B1: sp¦O96008¦TOM40_HUMAN (protein, UniProt O96008 1-361, looked up)
Mitochondrial import receptor …: MGNVLAASSPPAGPPPPPAPALVGLPPPPPSPPGFTLPPLGGSLGAGTSTSRSSERTPGAATASASGAAEDGACGCLPNPGTFEECHRKCKELFPIQMEGVKLTVNKGLSNHFQVNHTVALSTIGESNYHFGVTYVGTKQLSPTEAFPVLVGDMDNSGSLNAQVIHQLGPGLRSKMAIQTQQSKFVNWQVDGEYRGSDFTAAVTLGNPDVLVGSGILVAHYLQSITPCLALGGELVYHRRPGEEGTVMSLAGKYTLNNWLATVTLGQAGMHATYYHKASDQLQVGVEFEASTRMQDTSVSFGYQLDLPKANLLFKGSVDSNWIVGATLEKKLPPLPLTLALGAFLNHRKNKFQCGFGLTIG
B2: sp¦P54577¦SYYC_HUMAN (protein, UniProt P54577 1-528, looked up)
Tyrosine--tRNA ligase, …: MGDAPSPEEKLHLITRNLQEVLGEEKLKEILKERELKIYWGTATTGKPHVAYFVPMSKIADFLKAGCEVTILFADLHAYLDNMKAPWELLELRVSYYENVIKAMLESIGVPLEKLKFIKGTDYQLSKEYTLDVYRLSSVVTQHDSKKAGAEVVKQVEHPLLSGLLYPGLQALDEEYLKVDAQFGGIDQRKIFTFAEKYLPALGYSKRVHLMNPMVPGLTGSKMSSSEEESKIDLLDRKEDVKKKLKKAFCEPGNVENNGVLSFIKHVLFPLKSEFVILRDEKWGGNKTYTAYVDLEKDFAAEVVHPGDLKNSVEVALNKLLDPIREKFNTPALKKLASAAYPDPSKQKPMAKGPAKNSEPEEVIPSRLDIRVGKIITVEKHPDADSLYVEKIDVGEAEPRTVVSGLVQFVPKEELQDRLVVVLCNLKPQKMRGVESQGMLLCASIEGINRQVEPLDPPAGSAPGEHVFVKGYEKGQPDEELKPKKKVFEKLQADFKISEECIAQWKQTNFMTKLGSISCKSLKGGNIS
B3: sp¦P61009¦SPCS3_HUMAN (protein, UniProt P61009 1-180, looked up)
Signal peptidase complex …: MNTVLSRANSLFAFSLSVMAALTFGCFITTAFKDRSVPVRLHVSRIMLKNVEDFTGPRERSDLGFITFDITADLENIFDWNVKQLFLYLSAEYSTKNNALNQVVLWDKIVLRGDNPKLLLKDMKTKYFFFDDGNGLKGNRNVTLTLSWNVVPNAGILPLVTGSGHVSVPFPDTYEITKSY
B4: sp¦Q99496¦RING2_HUMAN (protein, UniProt Q99496 2-336, looked up)
E3 ubiquitin-protein ligase …: SQAVQTNGTQPLSKTWELSLYELQRTPQEAITDGLEIVVSPRSLHSELMCPICLDMLKNTMTTKECLHRFCADCIITALRSGNKECPTCRKKLVSKRSLRPDPNFDALISKIYPSRDEYEAHQERVLARINKHNNQQALSHSIEEGLKIQAMNRLQRGKKQQIENGSGAEDNGDSSHCSNASTHSNQEAGPSNKRTKTSDDSGLELDNNNAAMAIDPVMDGASEIELVFRPHPTLMEKDDSAQTRYIKTSGNATVDHLSKYLAVRLALEELRSKGESNQMNLDTASEKQYTIYIATASGQFTVLNGSFSLELVSEKYWKVNKPMELYYAPTKEHK
B5: sp¦Q8TCS8¦PNPT1_HUMAN (protein, UniProt Q8TCS8 46-783, looked up)
Polyribonucleotide …: AVAVDLGNRKLEISSGKLARFADGSAVVQSGDTAVMVTAVSKTKPSPSQFMPLVVDYRQKAAAAGRIPTNYLRREIGTSDKEILTSRIIDRSIRPLFPAGYFYDTQVLCNLLAVDGVNEPDVLAINGASVALSLSDIPWNGPVGAVRIGIIDGEYVVNPTRKEMSSSTLNLVVAGAPKSQIVMLEASAENILQQDFCHAIKVGVKYTQQIIQGIQQLVKETGVTKRTPQKLFTPSPEIVKYTHKLAMERLYAVFTDYEHDKVSRDEAVNKIRLDTEEQLKEKFPEADPYEIIESFNVVAKEVFRSIVLNEYKRCDGRDLTSLRNVSCEVDMFKTLHGSALFQRGQTQVLCTVTFDSLESGIKSDQVITAINGIKDKNFMLHYEFPPYATNEIGKVTGLNRRELGHGALAEKALYPVIPRDFPFTIRVTSEVLESNGSSSMASACGGSLALMDSGVPISSAVAGVAIGLVTKTDPEKGEIEDYRLLTDILGIEDYNGDMDFKIAGTNKGITALQADIKLPGIPIKIVMEAIQQASVAKKEILQIMNKTISKPRASRKENGPVVETVQVPLSKRAKFVGPGGYNLKKLQAETGVTISQVDEETFSVFAPTPSAMHEARDFITEICKDDQEQQLEFGAVYTATITEIRDTGVMVKLYPNMTAVLLHNTQLDQRKIKHPTALGLEVGQEIQVKYFGRDPADGRMRLSRKVLQSPATTVVRTLNDRSSIVMGEPISQSSSNSQ
B6: sp¦Q9H0A0¦NAT10_HUMAN (protein, UniProt Q9H0A0 1-1025, looked up)
RNA cytidine acetyltransferase: MHRKKVDNRIRILIENGVAERQRSLFVVVGDRGKDQVVILHHMLSKATVKARPSVLWCYKKELGFSSHRKKRMRQLQKKIKNGTLNIKQDDPFELFIAATNIRYCYYNETHKILGNTFGMCVLQDFEALTPNLLARTVETVEGGGLVVILLRTMNSLKQLYTVTMDVHSRYRTEAHQDVVGRFNERFILSLASCKKCLVIDDQLNILPISSHVATMEALPPQTPDESLGPSDLELRELKESLQDTQPVGVLVDCCKTLDQAKAVLKFIEGISEKTLRSTVALTAARGRGKSAALGLAIAGAVAFGYSNIFVTSPSPDNLHTLFEFVFKGFDALQYQEHLDYEIIQSLNPEFNKAVIRVNVFREHRQTIQYIHPADAVKLGQAELVVIDEAAAIPLPLVKSLLGPYLVFMASTINGYEGTGRSLSLKLIQQLRQQSAQSQVSTTAENKTTTTARLASARTLYEVSLQESIRYAPGDAVEKWLNDLLCLDCLNITRIVSGCPLPEACELYYVNRDTLFCYHKASEVFLQRLMALYVASHYKNSPNDLQMLSDAPAHHLFCLLPPVPPTQNALPEVLAVIQVCLEGEISRQSILNSLSRGKKASGDLIPWTVSEQFQDPDFGGLSGGRVVRIAVHPDYQGMGYGSRALQLLQMYYEGRFPCLEEKVLETPQEIHTVSSEAVSLLEEVITPRKDLPPLLLKLNERPAERLDYLGVSYGLTPRLLKFWKRAGFVPVYLRQTPNDLTGEHSCIMLKTLTDEDEADQGGWLAAFWKDFRRRFLALLSYQFSTFSPSLALNIIQNRNMGKPAQPALSREELEALFLPYDLKRLEMYSRNMVDYHLIMDMIPAISRIYFLNQLGDLALSAAQSALLLGIGLQHKSVDQLEKEIELPSGQLMGLFNRIIRKVVKLFNEVQEKAIEEQMVAAKDVVMEPTMKTLSDDLDEAAKEFQEKHKKEVGKLKSMDLSEYIIRGDDEEWNEVLNKAGPNASIISLKSDKKRKLEAKQEPKQSKKLKNRETKNKKDMKLKRKK
B7: sp¦O75607¦NPM3_HUMAN (protein, UniProt O75607 2-178, looked up)
Nucleoplasmin-3: AAGTAAALAFLSQESRTRAGGVGGLRVPAPVTMDSFFFGCELSGHTRSFTFKVEEEDDAEHVLALTMLCLTEGAKDECNVVEVVARNHDHQEIAVPVANLKLSCQPMLSLDDFQLQPPVTFRLKSGSGPVRITGRHQIVTMSNDVSEEESEEEEEDSDEEEVELCPILPAKKQGGRP
B8: sp¦Q9HDC9¦APMAP_HUMAN (protein, UniProt Q9HDC9 2-416, looked up)
Adipocyte plasma …: SEADGLRQRRPLRPQVVTDDDGQAPEAKDGSSFSGRVFRVTFLMLAVSLTVPLLGAMMLLESPIDPQPLSFKEPPLLLGVLHPNTKLRQAERLFENQLVGPESIAHIGDVMFTGTADGRVVKLENGEIETIARFGSGPCKTRDDEPVCGRPLGIRAGPNGTLFVADAYKGLFEVNPWKREVKLLLSSETPIEGKNMSFVNDLTVTQDGRKIYFTDSSSKWQRRDYLLLVMEGTDDGRLLEYDTVTREVKVLLDQLRFPNGVQLSPAEDFVLVAETTMARIRRVYVSGLMKGGADLFVENMPGFPDNIRPSSSGGYWVGMSTIRPNPGFSMLDFLSERPWIKRMIFKLFSQETVMKFVPRYSLVLELSDSGAFRRSLHDPDGLVATYISEVHEHDGHLYLGSFRSPFLCRLSLQAV
B9: sp¦Q96HE7¦ERO1A_HUMAN (protein, UniProt Q96HE7 24-468, looked up)
ERO1-like protein alpha: EEQPPETAAQRCFCQVSGYLDDCTCDVETIDRFNNYRLFPRLQKLLESDYFRYYKVNLKRPCPFWNDISQCGRRDCAVKPCQSDEVPDGIKSASYKYSEEANNLIEECEQAERLGAVDESLSEETQKAVLQWTKHDDSSDNFCEADDIQSPEAEYVDLLLNPERYTGYKGPDAWKIWNVIYEENCFKPQTIKRPLNPLASGQGTSEENTFYSWLEGLCVEKRAFYRLISGLHASINVHLSARYLLQETWLEKKWGHNITEFQQRFDGILTEGEGPRRLKNLYFLYLIELRALSKVLPFFERPDFQLFTGNKIQDEENKMLLLEILHEIKSFPLHFDENSFFAGDKKEAHKLKEDFRLHFRNISRIMDCVGCFKCRLWGKLQTQGLGTALKILFSEKLIANMPESGPSYEFHLTRQEIVSLFNAFGRISTSVKELENFRNLLQNIH
B10: sp¦P42167¦LAP2B_HUMAN (protein, UniProt P42167 1-454, looked up)
Lamina-associated polypeptide …: MPEFLEDPSVLTKDKLKSELVANNVTLPAGEQRKDVYVQLYLQHLTARNRPPLPAGTNSKGPPDFSSDEEREPTPVLGSGAAAAGRSRAAVGRKATKKTDKPRQEDKDDLDVTELTNEDLLDQLVKYGVNPGPIVGTTRKLYEKKLLKLREQGTESRSSTPLPTISSSAENTRQNGSNDSDRYSDNEEDSKIELKLEKREPLKGRAKTPVTLKQRRVEHNQSYSQAGITETEWTSGSSKGGPLQALTRESTRGSRRTPRKRVETSEHFRIDGPVISESTPIAETIMASSNESLVVNRVTGNFKHASPILPITEFSDIPRRAPKKPLTRAEVGEKTEERRVERDILKEMFPYEASTPTGISASCRRPIKGAAGRPLELSDFRMEESFSSKYVPKYVPLADVKSEKTKKGRSIPVWIKILLFVVVAVFLFLVYQAMETNQVNPFSNFLHVDPRKSN
B11: sp¦Q9Y5Y2¦NUBP2_HUMAN (protein, UniProt Q9Y5Y2 1-271, looked up)
Cytosolic Fe-S cluster …: MEAAAEPGNLAGVRHIILVLSGKGGVGKSTISTELALALRHAGKKVGILDVDLCGPSIPRMLGAQGRAVHQCDRGWAPVFLDREQSISLMSVGFLLEKPDEAVVWRGPKKNALIKQFVSDVAWGELDYLVVDTPPGTSDEHMATIEALRPYQPLGALVVTTPQAVSVGDVRRELTFCRKTGLRVMGIVENMSGFTCPHCTECTSVFSRGGGEELAQLAGVPFLGSVPLDPALMRTLEEGHDFIQEFPGSPAFAALTSIAQKILDATPACLP

Each molecule was assayed on human HL60 cells (assay: SWATH-MS proteomics, differential protein representation, akirin2 KO vs WT HL60 cells). Settings: SWATH-MS, akirin2 KO vs WT HL60 cells, under-represented in KO.
Assay type: cell-based
Procedure, shortened: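 Three biological replicates per genotype; 150 µg protein FASP/trypsin digested; IDA library (3 µg digest); SWATH variable windows, 5 µg/sample, 3.6 s cycle; gradient 5–30% B 120 min then 30–60% B 15 min; 1% global FDR; TAS normalization.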

Molecule | Fold Change | Log (Fold Change)
B1 | 0.6912 | -0.1604
B2 | 0.6907 | -0.1607
B3 | 0.6925 | -0.1596
B4 | 0.6992 | -0.1554
B5 | 0.6886 | -0.162
B6 | 0.7033 | -0.1528
B7 | 0.6936 | -0.1589
B8 | 0.6899 | -0.1612
B9 | 0.7045 | -0.1521
B10 | 0.7013 | -0.1541

Same assay, conditions: akirin2 KO vs WT HL60 cells; sheet "Under-represented in KO"

Molecule | Fold Change | Log (Fold Change)
B11 | 0.6881 | -0.1623
